Measured values reported in patent US20230279107A1 (ZHEJIANG RUIJIAMEI BIOTECH, published 2023).

Target: T1, CD19 expressed on Hela cells (stable cell line Hela-CD19) (human, UniProt P15391 20-556)
T1 sequence (looked up): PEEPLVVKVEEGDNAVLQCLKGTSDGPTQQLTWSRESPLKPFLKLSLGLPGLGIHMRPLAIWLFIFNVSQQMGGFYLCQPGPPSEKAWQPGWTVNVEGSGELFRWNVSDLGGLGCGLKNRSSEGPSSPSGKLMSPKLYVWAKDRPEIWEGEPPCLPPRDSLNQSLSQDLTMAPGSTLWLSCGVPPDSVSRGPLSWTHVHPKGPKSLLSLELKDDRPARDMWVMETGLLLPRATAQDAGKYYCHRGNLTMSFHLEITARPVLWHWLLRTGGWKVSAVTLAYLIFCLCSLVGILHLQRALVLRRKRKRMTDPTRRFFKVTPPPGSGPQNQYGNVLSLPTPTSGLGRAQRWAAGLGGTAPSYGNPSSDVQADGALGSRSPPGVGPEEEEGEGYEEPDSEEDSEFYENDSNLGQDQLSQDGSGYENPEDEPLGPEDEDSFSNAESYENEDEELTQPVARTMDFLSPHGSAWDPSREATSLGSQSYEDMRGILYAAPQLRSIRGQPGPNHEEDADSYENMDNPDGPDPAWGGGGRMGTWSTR
Assay: cell-based or functional assay

B1: Humanized CD19-4-1BB-CD3-CAR protein (CD8 leader sequence-CD19 scFv (VL-Linker-VH)-CD8 hinge-CD8 TM-41BB-CD3-zeta), expressed on DNT cells (other)
chain: DIQMTQSPSSLSASVGDRVTITCRASQDISKYLNWYQQKPGKAPKLLIYHTSRLHSGVPSRFSGSGSGTDFTLTISSLQPEDFATYYCQQGNTLPYTFGGGTKVEIKGSTSGSGKPGSGEGSTKGQVQLQESGPGLVKPSETLSLTCTVSGGSLPDYGVSWIRQPPGKGLEWIGVIWGSETTYYNSALKSRVTISVDTSKNQFSLKLSSVTAADTAVYYCAKHYYYGGSYAMDYWGQGTLVTVSSTTTPAPRPPTPAPTIASQPLSLRPEACRPAAGGAVHTRGLDFACDIYIWAPLAGTCGVLLLSLVITLYCKRGRKKLLYIFKQPFMRPVQTTQEEDGCSCRFPEEEEGGCELRVKFSRSADAPAYKQGQNQLYNELNLGRREEYDVLDKRRGRDPEMGGKPRRKNPQEGLYNELQKDKMAEAYSEIGMKGERRRGKGHDGLYQGLSTATKDTYDALHMQALPPR
  specific killing of Hela-CD19 by CAR19-DNT cells on day 8 of culture (RTCA, effector-target ratio 2:1, 18 h): 98.5%
  specific killing of Hela-CD19 by CAR19-DNT cells on day 13 of culture (RTCA, effector-target ratio 2:1, 18 h): 98.1%
